Reference: paper PMC6884138 (ACS synthetic biology, 2019)

Assays:
SEC = molecular target: the molecule itself; assay: SEC
crystal structure = molecular target: the molecule itself; assay: crystal structure

B1: BMC-H^2 (synthetic tandem-domain BMC shell protein), released from 6xHis-SUMO-BMC-H^2 by ULP protease (other, Haliangium ochraceum)
chain: MADALGMIEVRGFVGMVEAADAMVKAAKVELIGYEKTGGGYVTAVVRGDVAAVKAATEAGQRAAERVGEVVAVHVIPRPHVNVDAALPLGRTPGMDKSALDAPVVADAWEEDTESADALGMIEVRGFVGMVEAADAMVKAAKVELIGYEKTGGGYVTAVVRGDVAAVKAATEAGQRAAERVGEVVAVHVIPRPHVNVDAALPLGRTPGMDKSA
SEC
  stoichiometry N: 3
Crystal structure
  stoichiometry N: 90
